Measured values taken from article PMC12562645, “Enhancement of Activity of Thermophilic Inorganic Pyrophosphatase Ton1914 via Site-Directed Mutagenesis” (Biomolecules, 2025).

B1: Ton1914 (Thermococcus onnurineus NA1) (protein)
chain: MNPFHELEPGPEVPEVVYALIEIPKGSRNKYELDKKTGLLKLDRVLYSPFFYPVDYGIIPQTWYDDGDPFDIMVIMREPVYPLTIVEARPIGIMKMEDSGDKDWKVLAVPVEDPYFNDWKDIDDVPKAFLDEIAHFFQRYKELQGKVTTVEGWGTAEEAKREILRAIEMYKEKFGKKE
notes: pET28a-Ton1914 expressed in E. coli BL21(DE3); heat-treated (80 °C) supernatant concentrated by ultrafiltration
B2: Ton1914 (Thermococcus onnurineus NA1; E97Y) (protein)
chain: MNPFHELEPGPEVPEVVYALIEIPKGSRNKYELDKKTGLLKLDRVLYSPFFYPVDYGIIPQTWYDDGDPFDIMVIMREPVYPLTIVEARPIGIMKMYDSGDKDWKVLAVPVEDPYFNDWKDIDDVPKAFLDEIAHFFQRYKELQGKVTTVEGWGTAEEAKREILRAIEMYKEKFGKKE
notes: as for B1
B3: Ton1914 (Thermococcus onnurineus NA1; D101K/L42F) (protein)
chain: MNPFHELEPGPEVPEVVYALIEIPKGSRNKYELDKKTGLLKFDRVLYSPFFYPVDYGIIPQTWYDDGDPFDIMVIMREPVYPLTIVEARPIGIMKMEDSGKKDWKVLAVPVEDPYFNDWKDIDDVPKAFLDEIAHFFQRYKELQGKVTTVEGWGTAEEAKREILRAIEMYKEKFGKKE
notes: as for B1
B4: Ton1914 (Thermococcus onnurineus NA1; E97Y/L42F) (protein)
chain: MNPFHELEPGPEVPEVVYALIEIPKGSRNKYELDKKTGLLKFDRVLYSPFFYPVDYGIIPQTWYDDGDPFDIMVIMREPVYPLTIVEARPIGIMKMYDSGDKDWKVLAVPVEDPYFNDWKDIDDVPKAFLDEIAHFFQRYKELQGKVTTVEGWGTAEEAKREILRAIEMYKEKFGKKE
notes: as for B1
B5: Ton1914 (Thermococcus onnurineus NA1; D101K) (protein)
chain: MNPFHELEPGPEVPEVVYALIEIPKGSRNKYELDKKTGLLKLDRVLYSPFFYPVDYGIIPQTWYDDGDPFDIMVIMREPVYPLTIVEARPIGIMKMEDSGKKDWKVLAVPVEDPYFNDWKDIDDVPKAFLDEIAHFFQRYKELQGKVTTVEGWGTAEEAKREILRAIEMYKEKFGKKE
notes: as for B1
B6: Ton1914 (Thermococcus onnurineus NA1; L42F) (protein)
chain: MNPFHELEPGPEVPEVVYALIEIPKGSRNKYELDKKTGLLKFDRVLYSPFFYPVDYGIIPQTWYDDGDPFDIMVIMREPVYPLTIVEARPIGIMKMEDSGDKDWKVLAVPVEDPYFNDWKDIDDVPKAFLDEIAHFFQRYKELQGKVTTVEGWGTAEEAKREILRAIEMYKEKFGKKE
notes: as for B1
B7: Ton1914 (Thermococcus onnurineus NA1; D101K/E97Y) (protein)
chain: MNPFHELEPGPEVPEVVYALIEIPKGSRNKYELDKKTGLLKLDRVLYSPFFYPVDYGIIPQTWYDDGDPFDIMVIMREPVYPLTIVEARPIGIMKMYDSGKKDWKVLAVPVEDPYFNDWKDIDDVPKAFLDEIAHFFQRYKELQGKVTTVEGWGTAEEAKREILRAIEMYKEKFGKKE
notes: as for B1

What follows are proteins tested on O=P(O)(O)OP(=O)(O)O (assay: purified protein). Conditions: Mg2+, 90 °C, pH 9, pyrophosphate 0.05–1.0 mM, unit mM doubtful (M would fit the substrate range).
Assay type: biochemical, Thermococcus onnurineus
In the case of B1, the Km is reported as 3.03 ± 0.18 × 10^−4 mM.
B2 was tested, and the Km was 5.94 ± 0.14 × 10^−4 mM.
In the case of B3, the Km is reported as 6.34 ± 0.82 × 10^−4 mM.
With B4 the Km was 8.49 ± 0.30 × 10^−4 mM.
B5 was tested, and the Km was 1.03 ± 0.04 × 10^−4 mM.
In the case of B6, the Km is reported as 3.18 ± 0.05 × 10^−4 mM.
With B7 the Km was 3.48 ± 0.27 × 10^−4 mM.
